T1: recombinant transforming ras p21 (human)
T1 chain: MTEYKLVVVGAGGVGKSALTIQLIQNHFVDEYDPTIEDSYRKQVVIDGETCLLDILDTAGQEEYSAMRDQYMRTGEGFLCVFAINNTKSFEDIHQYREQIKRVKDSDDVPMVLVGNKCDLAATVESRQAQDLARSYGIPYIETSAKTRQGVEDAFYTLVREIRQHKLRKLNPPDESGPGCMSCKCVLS


What was measured:
oncogenic ras-p-21 = settings: background; cited from earlier work
[1] = target: T1, recombinant transforming ras p21; test: cell-based or functional assay

Row | Present Inhibition of ras-Induced Maturation [1] [percent] | Molecule | inhibition of oncogenic ras-p-21 (oncogenic ras-p-21)
1 | 76 | IKRVKD [peptide of SEQ ID NO:1 (residues 100 to 105 of SEQ ID NO:5)] | 
2 | 56 | YREQIKRVKDSDDVP [peptide of SEQ ID NO:7 (residues 96 to 110 of SEQ ID NO:5)] | 
3 | 34 | VVI [Val-Val-Ile] | 
4 | 38 | KCDLA [peptide of SEQ ID NO:2 (residues 117 to 121 of SEQ ID NO:5)] | 

The next lines start with the molecule.

Row | Molecule | Present Inhibition of ras-Induced Maturation [1] [percent] | inhibition of oncogenic ras-p-21 (oncogenic ras-p-21)
5 | N[C@@H](Cc1ccc(O)cn1)C(=O)O [Azatyrosine] |  | strongly inhibits
6 | DLAA [peptide of SEQ ID NO:4 (residues 119 to 122 of SEQ ID NO:5)] | 22 | 
7 | TIEDSYRKQVVID [peptide of SEQ ID NO:6 (residues 35 through 47 of SEQ ID NO:5)] | 28 | 
8 | KRV [Lys-Arg-Val] | 22 | 
9 | CDLAART [peptide of SEQ ID NO:9 (residues 118 to 124 of SEQ ID NO:5)] | 65 | 
10 | GNKCDLAARTVE [peptide of SEQ ID NO:8 (residues 115 to 126 of SEQ ID NO:5)] | 92 | 
